Experimental data taken from article PMC6636998, “Functional cross-talk between allosteric effects of activating and inhibiting ligands underlies PKM2 regulation” (eLife, 2019).

Target: the molecule itself
Assay: native MS; nano-ESI, PKM2 in 200 mM ammonium acetate pH 6.8, with added saturating FBP (10 µM FBP to 10 µM PKM2; 10:1 FBP:PKM2 for the AlloHub mutants); also with 300 µM Phe added before or after FBP

Row | Protein | binding result | stoichiometry N
1 | PKM2(I124G) (enzyme, pyruvate kinase M2 (PKM2), Homo sapiens, Uniprot ID P14618-1; pET28a-His-PKM2(I124G), made from pET28a-His-PKM2(WT); also called AlloHubM I124G; source: E. coli BL21(DE3)pLysS, purified (HisTrap IMAC, thrombin cleavage, Superdex 200 SEC); not shown: His6, N-terminal, cleaved) not shown | binds | –
2 | PKM2(C358A) (enzyme, pyruvate kinase M2 (PKM2), Homo sapiens, Uniprot ID P14618-1; pET28a-His-PKM2(C358A), made from pET28a-His-PKM2(WT); also called AlloHubM C358A; source: E. coli BL21(DE3)pLysS, purified (HisTrap IMAC, thrombin cleavage, Superdex 200 SEC); not shown: His6, N-terminal, cleaved) not shown | – | 4
3 | PKM2(F244V) (enzyme, pyruvate kinase M2 (PKM2), Homo sapiens, Uniprot ID P14618-1; pET28a-His-PKM2(F244V), made from pET28a-His-PKM2(WT); also called AlloHubM F244V; source: E. coli BL21(DE3)pLysS, purified (HisTrap IMAC, thrombin cleavage, Superdex 200 SEC); not shown: His6, N-terminal, cleaved) not shown | binds | –
4 | PKM2(K305Q) (enzyme, pyruvate kinase M2 (PKM2), Homo sapiens, Uniprot ID P14618-1; pET28a-His-PKM2(K305Q), made from pET28a-His-PKM2(WT); also called AlloHubM K305Q; source: E. coli BL21(DE3)pLysS, purified (HisTrap IMAC, thrombin cleavage, Superdex 200 SEC); not shown: His6, N-terminal, cleaved) not shown | – | 4
5 | PKM2(A327S) (enzyme, pyruvate kinase M2 (PKM2), Homo sapiens, Uniprot ID P14618-1; pET28a-His-PKM2(A327S), made from pET28a-His-PKM2(WT); also called AlloHubM A327S; source: E. coli BL21(DE3)pLysS, purified (HisTrap IMAC, thrombin cleavage, Superdex 200 SEC); not shown: His6, N-terminal, cleaved) not shown | – | 4
